T1: human TNC rCd4-His-FBG (rat; human)
T1 sequence: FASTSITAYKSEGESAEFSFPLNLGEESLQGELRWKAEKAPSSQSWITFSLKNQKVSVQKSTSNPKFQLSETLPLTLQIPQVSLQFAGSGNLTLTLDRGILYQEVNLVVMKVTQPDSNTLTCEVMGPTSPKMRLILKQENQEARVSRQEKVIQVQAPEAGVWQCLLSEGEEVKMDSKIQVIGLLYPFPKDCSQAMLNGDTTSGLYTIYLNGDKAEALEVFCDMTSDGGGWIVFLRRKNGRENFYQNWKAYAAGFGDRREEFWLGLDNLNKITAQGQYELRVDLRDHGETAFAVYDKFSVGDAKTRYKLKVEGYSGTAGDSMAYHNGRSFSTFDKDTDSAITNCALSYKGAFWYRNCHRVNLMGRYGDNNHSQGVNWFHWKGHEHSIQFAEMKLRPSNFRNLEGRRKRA

T2: human TNC rCd4-His-FBG (rat; human, UniProt P05540 207-386)
T2 construct: domain: domains 3 and 4; Biotinylated in the ELISA and HTRF assays; also called Hu TNC; human TNC FBG
T2 sequence: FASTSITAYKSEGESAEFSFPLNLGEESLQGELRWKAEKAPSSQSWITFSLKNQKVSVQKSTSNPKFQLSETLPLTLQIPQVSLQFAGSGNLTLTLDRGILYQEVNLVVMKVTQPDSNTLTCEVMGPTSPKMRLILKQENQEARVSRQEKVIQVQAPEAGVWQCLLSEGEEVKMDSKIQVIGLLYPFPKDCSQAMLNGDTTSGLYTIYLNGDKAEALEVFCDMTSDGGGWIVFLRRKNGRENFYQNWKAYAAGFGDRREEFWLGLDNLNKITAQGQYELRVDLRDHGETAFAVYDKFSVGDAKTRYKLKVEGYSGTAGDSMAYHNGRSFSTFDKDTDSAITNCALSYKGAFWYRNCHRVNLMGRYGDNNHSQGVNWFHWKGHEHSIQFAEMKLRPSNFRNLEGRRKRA

T3: mouse TNC rCd4-His-FBG (rat; mouse, UniProt P05540 207-386)
T3 construct: domain: domains 3 and 4; also called Mu TNC; mouse TNC FBG
T3 sequence: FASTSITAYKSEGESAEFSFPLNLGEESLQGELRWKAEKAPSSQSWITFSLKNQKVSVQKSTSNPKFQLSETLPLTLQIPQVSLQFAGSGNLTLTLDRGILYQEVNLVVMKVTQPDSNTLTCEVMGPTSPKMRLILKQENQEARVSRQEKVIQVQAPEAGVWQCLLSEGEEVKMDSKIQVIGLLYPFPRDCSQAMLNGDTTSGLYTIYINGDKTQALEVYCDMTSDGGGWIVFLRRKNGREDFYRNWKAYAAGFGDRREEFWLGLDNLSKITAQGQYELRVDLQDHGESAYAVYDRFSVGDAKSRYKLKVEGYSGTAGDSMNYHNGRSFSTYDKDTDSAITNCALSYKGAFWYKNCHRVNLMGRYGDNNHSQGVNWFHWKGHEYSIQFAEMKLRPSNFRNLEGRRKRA

B1: 2A5 scFv (scFv, V domains shown, not shown: small tags and cut ends)
VH: EVRLVQSGAEVKKPGASVKVSCKVSGYTLTELSMHWVRQAPGKGLEWMGGFDPEDGETIYAQKFQGRVTMTEDTSTDTAYMELSSLRSEDTAVYYCATAQKETYALTYWGQGTLVTVSS
VL: DIQMTQSPASLPTSVGDRVTITCRASQYIQGFLNWYQQKPGKAPRLLIYAASTLQDGVPSRFSGSGYGTDFTLTISSLQPEDFATYYCQQSYSTPWTFGQGTKVEIK
B2: 165_13_D1 scFv (scFv, V domains shown)
VH: QVQLVESGGGLVQPGRSLRLSCAASGFTFDDYAMHWVRQAPGKGLEWVSGISGSGGSTYYADSVKGRFTISRDNAKNSLYLQMNSLRAEDTALYYCAKGTRGEGDTFDIWGQGTMVTVSS
VL: DIQMTQSPASLPTPVGDRVTITCRASQYIQGFLNWYQQKPGKAPKLLIYDASNLETGVPSRFSGSGSGTDFTLTISSLQPEDFATYYCQQSYSTPQTFGQGTKVDIK
notes: VH CDR3 GTRGEGDTFDI; not shown: scFv linker, domain order, and the tags of the pSANG10 vector (FLAG and others)
B3: 165_13_E1 scFv (scFv, V domains shown, not shown: small tags and cut ends)
VH: QVQLVESGGGLVQPGRSLRLSCAASGFTFDDYAMHWVRQAPGKGLEWVSGISGSGGSTYYADSVKGRFTISRDNAKNSLYLQMNSLRAEDTALYYCAKDISAVMDVPQTWGQGTMVTVSS
VL: DIQMTQSPASLPTPVGDRVTITCRASQYIQGFLNWYQQKPGKAPKLLIYDASNLETGVPSRFSGSGSGTDFTLTISSLQPEDFATYYCQQSYSTPQTFGQGTKVDIK
notes: VH CDR3 DISAVMDVPQT; 48 is used
B4: 165_13_B6 scFv (scFv, V domains shown)
VH: QVQLVESGGGLVQPGRSLRLSCAASGFTFDDYAMHWVRQAPGKGLEWVSGISGSGGSTYYADSVKGRFTISRDNAKNSLYLQMNSLRAEDTALYYCAKGQKGEGDTFDIWGQGTMVTVSS
VL: DIQMTQSPASLPTPVGDRVTITCRASQYIQGFLNWYQQKPGKAPKLLIYDASNLETGVPSRFSGSGSGTDFTLTISSLQPEDFATYYCQQSYSTPQTFGQGTKVDIK
notes: VH CDR3 GQKGEGDTFDI; not shown: scFv linker, domain order, and the tags of the pSANG10 vector (FLAG and others)
B5: 165_13_B3 scFv (scFv, V domains shown, not shown: small tags and cut ends)
VH: QVQLVESGGGLVQPGRSLRLSCAASGFTFDDYAMHWVRQAPGKGLEWVSGISGSGGSTYYADSVKGRFTISRDNAKNSLYLQMNSLRAEDTALYYCAKALARGHDTFDIWGQGTMVTVSS
VL: DIQMTQSPASLPTPVGDRVTITCRASQYIQGFLNWYQQKPGKAPKLLIYDASNLETGVPSRFSGSGSGTDFTLTISSLQPEDFATYYCQQSYSTPQTFGQGTKVDIK
notes: VH CDR3 ALARGHDTFDI
B6: 165_13_D4 scFv (scFv, V domains shown)
VH: QVQLVESGGGLVQPGRSLRLSCAASGFTFDDYAMHWVRQAPGKGLEWVSGISGSGGSTYYADSVKGRFTISRDNAKNSLYLQMNSLRAEDTALYYCAKGTVGEGDTFDIWGQGTMVTVSS
VL: DIQMTQSPASLPTPVGDRVTITCRASQYIQGFLNWYQQKPGKAPKLLIYDASNLETGVPSRFSGSGSGTDFTLTISSLQPEDFATYYCQQSYSTPQTFGQGTKVDIK
notes: VH CDR3 GTVGEGDTFDI; not shown: scFv linker, domain order, and the tags of the pSANG10 vector (FLAG and others)
B7: 180_11_F5 scFv (scFv, V domains shown, not shown: small tags and cut ends)
VH: QVQLVESGGGLVQPGRSLRLSCAASGFTFDDYAMHWVRQAPGKGLEWVSGISGSGGSTYYADSVKGRFTISRDNAKNSLYLQMNSLRAEDTALYYCAKVMRTGLDTFDIWGQGTMVTVSS
VL: DIQMTQSPASLPTPVGDRVTITCRASQYIQGFLNWYQQKPGKAPKLLIYDASNLETGVPSRFSGSGSGTDFTLTISSLQPEDFATYYCQQSYSTPQTFGQGTKVDIK
notes: VH CDR3 VMRTGLDTFDI
B8: 165_13_A4 scFv (scFv, V domains shown)
VH: QVQLVESGGGLVQPGRSLRLSCAASGFTFDDYAMHWVRQAPGKGLEWVSGISGSGGSTYYADSVKGRFTISRDNAKNSLYLQMNSLRAEDTALYYCAKDKYPVLDTFDIWGQGTMVTVSS
VL: DIQMTQSPASLPTPVGDRVTITCRASQYIQGFLNWYQQKPGKAPKLLIYDASNLETGVPSRFSGSGSGTDFTLTISSLQPEDFATYYCQQSYSTPQTFGQGTKVDIK
notes: VH CDR3 DKYPVLDTFDI; not shown: scFv linker, domain order, and the tags of the pSANG10 vector (FLAG and others)
B9: 165_13_B1 scFv (scFv, V domains shown)
VH: QVQLVESGGGLVQPGRSLRLSCAASGFTFDDYAMHWVRQAPGKGLEWVSGISGSGGSTYYADSVKGRFTISRDNAKNSLYLQMNSLRAEDTALYYCAKVMSSMEDAFDIWGQGTMVTVSS
VL: DIQMTQSPASLPTPVGDRVTITCRASQYIQGFLNWYQQKPGKAPKLLIYDASNLETGVPSRFSGSGSGTDFTLTISSLQPEDFATYYCQQSYSTPQTFGQGTKVDIK
notes: VH CDR3 VMSSMEDAFDI; not shown: scFv linker, domain order, and the tags of the pSANG10 vector (FLAG and others)
B10: 165_13_C3 scFv (scFv, V domains shown)
VH: QVQLVESGGGLVQPGRSLRLSCAASGFTFDDYAMHWVRQAPGKGLEWVSGISGSGGSTYYADSVKGRFTISRDNAKNSLYLQMNSLRAEDTALYYCAKSYQSDEDAFDIWGQGTMVTVSS
VL: DIQMTQSPASLPTPVGDRVTITCRASQYIQGFLNWYQQKPGKAPKLLIYDASNLETGVPSRFSGSGSGTDFTLTISSLQPEDFATYYCQQSYSTPQTFGQGTKVDIK
notes: VH CDR3 SYQSDEDAFDI; Antibody C3 of the B12 family; not shown: scFv linker, domain order, and the tags of the pSANG10 vector (FLAG and others)

Key:
[1] = biological target: T1, human TNC rCd4-His-FBG (rat; human); experiment: HTRF competition, scFv supernatant, competitor d2-labelled B12 IgG, biotinylated human rCd4-His-FBG
human TNC rCd4-His-FBG = biological target: T2, human TNC rCd4-His-FBG; experiment: as above
Protocol: An HTRF-based competition assay was developed to screen for antibody variants with improved binding to human TNC FBG.
All samples and reagents were prepared in assay buffer (50 mM NaPO₄, 0.1% BSA, 0.4 M KF, pH 7.0) at 4× the stated concentration. 5 μl of each reagent was subsequently added to low volume 384-well assay plates (Greiner, 784075) to give a final reaction volume of 20 μl. IgG antibodies were labelled using the d2 labelling kit (CisBio, 62D2DPEA) as directed by the manufacturer. Streptavidin europium cryptate (CisBio, 610SAKLA, Lot#25C) was used at a final concentration of 1.8 ng active moiety (SA) per 20 μl reaction as recommended by the manufacturer. Biotinylated rCd4-His-FBG was prepared using EZ-link Sulfo-NHS-LC-Biotin reagent (Thermo Scientific, 21327) the extent of biotinylation was quantified using biotinylation fluorescence quantitation kit (Thermo Scientific, 46610). Where appropriate, supernatants containing scFv (prepared as described above for ELISA assays) were added to the 384-well assay plate at a final dilution of 1/20 (i.e. 1/5 dilution in assay buffer followed by addition of 5 μl diluted sample to the 20 μl FRET assay). […] Unless otherwise stated, biotinylated rCd4-His-FBG (biotin:protein ratio=1.8:1) was present at either 2.2 nM (in assays using the 2A5 IgG antibody) or 1 nM (in experiments using B12 IgG). Samples were incubated for approximately 1 h at room temperature and the FRET signal was determined using a BMG Pherastar instrument: excitation=320 nm; emission=620 nm and 665 nm; integration start time=60 μs; integration time=500 μs; 100 flashes per well. For competition assays containing culture supernatant, biotinylated rCd4-His-FBG antigen was pre-incubated with streptavidin europium cryptate for 45 min prior to addition of reagents to the assay plate. All FRET signals are presented as ΔR, where R=(E665/E620×104) and ΔR=(Rsample−Rbackground fluorescence).
Culture supernatants containing unlabelled scFv clones from affinity selected mutant libraries were tested for inhibition of the interaction between FBG and the fluorophore-labelled parental IgG antibody.

mouse TNC rCd4-His-FBG = biological target: T3, mouse TNC rCd4-His-FBG; experiment: anti-FLAG capture DELFIA ELISA, scFv supernatant, biotinylated mouse rCd4-His-FBG
Protocol: E. coli clones harbouring scFv pSANG10 expression plasmids were induced in 96-well plates with auto-induction media as described previously (Schofield et al, 2007). E. coli supernatants were harvested for ELISA assays. ELISA used the DELFIA (dissociation enhanced lanthanide fluorescent immunoassay) system with Europium-labelled anti-FLAG antibody (Sigma, Aldrich, UK). Black immunosorb plates (Nunc) were coated overnight with anti-FLAG M2 antibody (Sigma, F3165, 5 μg/ml in PBS, 50 μl per well), in wells blocked by the addition of 2% milk powder, PBS (PBS-M, 300 μl per well). Plates were washed three times with PBS-T (PBS, 0.1% Tween-20) and three times with PBS followed by the addition of a 1:2 dilution of 96-well auto-induction culture supernatants containing expressed scFv in PBS-M (50 μl per well). The plates were incubated for 1 h, washed as above and biotinylated mouse or human rCd4-His-FBG (5 μg/ml in PBS-M, 50 μl) added to each well. Plates were incubated for a further 1 h, washed and Strepravidin-Eu added (Perkin Elmer, 1 μg/ml, PBS-M, 50 μl), incubated for 30 min, washed and DELFIA enhancement solution added (50 μl) and plates read on a Perkin Elmer Fusion plate reader (excitation=320 nm, emission 620 nm). The format of the assay is shown in.

% inhibition by parent scFv [1] [%]	% inhibition of HTRF signal (human TNC rCd4-His-FBG) [%]	fold improvement for mouse FBG binding (against the parent B12) (mouse TNC rCd4-His-FBG) [fold]	Binder
19			B1
	91	≥ 4	B2
	91	≥ 4	B3
	91	≥ 4	B4
	91	≥ 4	B5
	91	≥ 4	B6
	91	≥ 4	B7
	91	≥ 4	B8
	91	≥ 4	B9
	91	≥ 4	B10

Reference: patent publication US20190225680A1 (NASCIENT, published 2019)
